From article PMC11633101

Biological target: bovine NECTIN1 with 6×his tag, purified from CHO cells (bovine)
Assay: SPR; Biacore 8K, CM5 chip, 25°C, single-cycle mode, PBS; NECTIN1 and CD46 captured on the chip, serial dilutions of BVDV E2 injected; regeneration with glycine pH 2.5

BVDV E2 protein with 6×his tag, purified from 293F cells (from UniProt P19711 693-1066) (natural protein)
Kd: 3.47 pM
